# Assay results as given in PMC5825165, “EAT1 transcription factor, a non-cell-autonomous regulator of pollen production, activates meiotic small RNA biogenesis in rice anther tapetum” (PLoS Genetics, 2018).
# T1: UDT1-nYFP (UNDEVELOPED TAPETUM1 fused with the N-terminal split of YFP) (rice (japonica cv. Nipponbare), UniProt B9FXT3 1-234)
# T1 sequence (looked up): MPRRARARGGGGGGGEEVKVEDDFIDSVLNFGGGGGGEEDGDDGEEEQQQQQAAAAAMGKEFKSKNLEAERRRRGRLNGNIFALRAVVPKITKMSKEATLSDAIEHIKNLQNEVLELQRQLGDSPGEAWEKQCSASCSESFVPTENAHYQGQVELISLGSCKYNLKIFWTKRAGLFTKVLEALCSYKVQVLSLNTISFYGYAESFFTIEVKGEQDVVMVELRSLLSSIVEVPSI
# Target: T1, UDT1-nYFP (UNDEVELOPED TAPETUM1 fused …)
# Experiment: cell-based or functional assay
binder,measurement,value
"TIP2-cYFP (TDR INTERACTING PROTEIN2 fused with the C-terminal split of YFP) (natural protein, rice (japonica cv. Nipponbare), UniProt Q5JNS0 1-379, looked up) MYHPQCELLMPLESLEMDVGQSHLAAAVAAAMPGELNFHLLHSLDAAAAAASSTAASASSQPTVDYFFGGADQQPPPPAAMQYDQLAAPHHHQTVAMLRDYYGGHYPPAAAAAAATEAYFRGGPRTAGSSSLVFGPADDESAFMVGPFESSPTPRSGGGRKRSRATAGFHGGGPANGVEKKEKQRRLRLTEKYNALMLLIPNRTKEDRATVISDAIEYIQELGRTVEELTLLVEKKRRRREMQGDVVDAATSSVVAGMDQAAESSEGEVMAAAAMGAVAPPPRQAPIRSTYIQRRSKETFVDVRIVEDDVNIKLTKRRRDGCLAAASRALDDLRLDLVHLSGGKIGDCHIYMFNTKIHSGSPVFASAVASRLIEVVDEY",transient expression assay in rice protoplasts: firefly Luciferase activity of the 24-PHAS chr5-20 promoter on TIP2-UDT1 cotransfection (untagged effectors),8.63 fold
same,transient expression assay in rice protoplasts: firefly Luciferase activity of the 24-PHAS chr6-97 promoter on TIP2-UDT1 cotransfection (untagged effectors),2.73 fold
same,transient expression assay in rice protoplasts: firefly Luciferase activity of the DCL5 promoter (pDCL5) on TIP2-UDT1 cotransfection (untagged effectors),4.91 fold
same,transient expression assay in rice protoplasts: firefly Luciferase activity of the EAT1 promoter (pEAT1) on TIP2-UDT1 cotransfection (untagged effectors),5.72 fold
"EAT1-cYFP (ETERNAL TAPETUM1 fused with the C-terminal split of YFP) (natural protein, rice (japonica cv. Nipponbare), UniProt Q7X8R0 1-464, looked up) MIVGAGYFEDSHDQSLMAGSLIHDSNQAPASSENTSIDLQKFKVHPYSTEALSNTANLAEAARAINHLQHQLEIDLEQEVPPVETANWDPAICTIPDHIINHQFSEDPQNILVEQQIQQYDSALYPNGVYTPAPDLLNLMQCTMAPAFPATTSVFGDTTLNGTNYLDLNGELTGVAAVPDSGSGLMFASDSALQLGYHGTQSHLIKDICHSLPQNYGLFPSEDERDVIIGVGSGDLFQEIDDRQFDSVLECRRGKGEFGKGKGKANFATERERREQLNVKFRTLRMLFPNPTKNDRASIVGDAIEYIDELNRTVKELKILVEQKRHGNNRRKVLKLDQEAAADGESSSMRPVRDDQDNQLHGAIRSSWVQRRSKECHVDVRIVDDEVNIKLTEKKKANSLLHAAKVLDEFQLELIHVVGGIIGDHHIFMFNTKVSEGSAVYACAVAKKLLQAVDVQHQALDIFN","transient expression assay in rice protoplasts: firefly Luciferase activity of the 24-PHAS chr5-20 promoter on EAT1-UDT1 cotransfection (untagged effectors), fold against the no effector control",4.46 fold
same,"transient expression assay in rice protoplasts: firefly Luciferase activity of the 24-PHAS chr6-97 promoter on EAT1-UDT1 cotransfection (untagged effectors), fold against the no effector control",3.99 fold
same,transient expression assay in rice protoplasts: firefly Luciferase activity of the EAT1 promoter (pEAT1) on EAT1-UDT1 cotransfection (untagged effectors),7.61 fold
